Results reported in patent publication US20220348679A1 (MYTHIC THERAPEUTICS, published 2022).

T1: LRRC15 on U-87 MG (LRRC15+) cells (UniProt Q8TF66 22-581, limits assumed)
T1 construct: whole, on cells; also called cell surface LRRC15
T1 sequence (looked up): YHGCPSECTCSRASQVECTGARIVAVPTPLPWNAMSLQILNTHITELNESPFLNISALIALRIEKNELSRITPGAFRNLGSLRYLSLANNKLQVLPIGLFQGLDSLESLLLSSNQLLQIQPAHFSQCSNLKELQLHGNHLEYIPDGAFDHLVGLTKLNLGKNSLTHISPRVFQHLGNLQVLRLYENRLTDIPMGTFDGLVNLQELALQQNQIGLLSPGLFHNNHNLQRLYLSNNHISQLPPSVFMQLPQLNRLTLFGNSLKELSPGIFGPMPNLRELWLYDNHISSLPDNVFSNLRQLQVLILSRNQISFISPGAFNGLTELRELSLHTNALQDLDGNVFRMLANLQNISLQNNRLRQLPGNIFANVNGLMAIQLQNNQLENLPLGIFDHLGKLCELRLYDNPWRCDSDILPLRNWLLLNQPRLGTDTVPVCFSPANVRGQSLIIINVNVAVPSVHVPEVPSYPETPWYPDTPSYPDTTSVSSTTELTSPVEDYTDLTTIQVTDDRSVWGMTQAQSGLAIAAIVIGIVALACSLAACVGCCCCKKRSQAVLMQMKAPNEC


Target: T1, LRRC15 on U-87 MG (LRRC15+) cells
Assay: flow cytometry on U-87 MG (LRRC15+) cells; the text of Example 22 calls the fitted value a dissociation constant KD
Protocol: Binding affinity of selected LRRC15 pH engineered antibody variants from Example 9 were measured on U-87 MG (LRRC15+) cells. 100,000 U-87 MG cells (ATCC HTB-14) were seeded per well in a 96 well deep well plate. Samrotamab and a pH engineered antibody variant were serially diluted at a 1:3 dilution in ice cold FC buffer (phosphate buffered saline (PBS), pH 7.4+2 mM ethylenediaminetetraacetic acid (EDTA)+2% (v/v) HI FBS). The plates were spun at 2,000 RPM for 2 minutes, the supernatant was removed, and 100 μL of diluted antibody was added to each well with final concentration ranging from 60 nM to 1 pM and incubated for 2 hours at 4° C. Post incubation, the cells were spun at 2000 rpm for 2 min and supernatant was discarded. Cells were washed twice with 500 μL of ice-cold FC buffer and resuspended with 100 μL of FC buffer. The cells were then transferred from the deep well plate to 96 well round bottom plate, spun at 2000 rpm for 2 min and incubated with 100 μL of 10 μg/mL Alexa Fluor 488 conjugated goat anti-human IgG secondary antibody (ThermoFisher Scientific, A11013) for 30 min. Post incubation, cells were washed with FC buffer and resuspended in 100 μL of FC buffer to read on a BD Accuri C6 flow cytometer. Binding affinity was measured as a dissociation constant KD by GraphPad Prism assuming Michaelis-Menten binding kinetics.

| IC50 [nM] | Binder |
| --- | --- |
| 0.228 | samrotamab (antibody, V domains shown, IgG; also called MYT0963) VH: EVQLVQSGAEVKKPGASVKVSCKASGYKFSSYWIEWVKQAPGQGLEWIGEILPGSDTTNYNEKFKDRATFTSDTSINTAYMELSRLRSDDTAVYYCARDRGNYRAWFGYWGQGTLVTVSS VL: DIQMTQSPSSLSASVGDRVTITCRASQDISNYLNWYQQKPGGAVKFLIYYTSRLHSGVPSRFSGSGSGTDYTLTISSLQPEDFATYFCQQGEALPWTFGGGTKVEIK |
| 0.484 | MYT0971 (antibody, V domains shown, IgG) VH: EVQLVQSGAEVKKPGASVKVSCKASGYKFSSYHIEWVKQAPGQGLEWIGEILPGSDTTNYNEKFKDRATFTSDTSINTAYMELSRLRSDDTAVYYCARDRGNYRAWFGYWGQGTLVTVSS VL: DIQMTQSPSSLSASVGDRVTITCRASQDISNYLNWYQQKPGGAVKFLIYYTSRLHSGVPSRFSGSGSGTDYTLTISSLQPEDFATYFCQQGEALPWTFGGGTKVEIK |
